# Where two headings read alike, the source gives them in different places. *1 amine or outer side, *2 acyl side, *3 side chain or, on linkers, in order; H or OH if unused. Where a SMILES comes first, the peptide text is derived from it. Where no end group is shown, it is not given here. [ ]: non-standard residue; d: D form. NEtW = N-ethyl-tryptophan (F149), CCN([C@@H](Cc1c[nH]c2ccccc12)C(=O)[*:2])[*:1]; X2 = O=C([C@H](CC1CCC(F)(F)CC1)N[*:1])[*:2]; 2Nal = N[C@@H](Cc1ccc2ccccc2c1)C(=O)O; hCha = N[C@@H](CCC1CCCCC1)C(=O)O; Cha = N[C@@H](CC1CCCCC1)C(=O)O; F182 = not defined here; F72 = not defined here
# B1: VIB_P06 (peptide)
# peptide: DDSDVWW
# B2: VIB_P01 (peptide)
# peptide: DASDVWWGG
# B3: VIB_P12 (peptide)
# peptide: ADSDVWWGG
# B4: VIB_P04 (peptide)
# peptide: DASAVWWGG
# B5: VIB_P03 (peptide)
# peptide: DDSAVWWGG
# B6: VIB_P19 (peptide)
# peptide: AASDVWWGG
# B7: VIB_P02 (peptide)
# peptide: DDADVWWGG
# B8: VIB-0068905 (peptide)
# peptide: DIXWS
# modifications: D-aspartic acid at position 1; position 3 (X) is the non-natural residue F15 = methylcyclohexane
# notes: Peptidomimetic 5-mer; X marks the non-natural residue
# B9: VIB_P10 (peptide)
# peptide: DD[dS]DVWWGG
# notes: Printed as DD{D-SER}DVWWGG
# B10: VIB-0068907 (peptide)
# peptide: [dD]I[F182]WS
# modifications: not fully specified; reading uncertain
# notes: as for B8
# B11: VIB-0068903 (peptide)
# peptide: DIXWS
# modifications: D-aspartic acid at position 1; position 3 (X) is the non-natural residue F141 = ethylcyclohexane
# notes: as for B8
# B12: VIB-0068910 (peptide)
# peptide: DIXWS
# modifications: D-aspartic acid at position 1; position 3 (X) is the non-natural residue F70 = ethylbenzene
# notes: as for B8
# B13: VIB_P33 (peptide)
# peptide: DVWWG
# notes: also called DVWWG 5-mer; wild-type 5-mer
# B14: VIB_P34 (peptide)
# peptide: DIWWS
# notes: also called VIB_34; DIWWS
# B15: VIB_P36 (peptide)
# peptide: DIHWG
# B16: VIB-0068904 (peptide)
# peptide: [dD]I[NEtW]WS
# notes: Peptidomimetic 5-mer; position 3 is written W for N-ethyl-tryptophan
# B17: VIB-0068895 (peptide)
# peptide: DIXWS
# modifications: not fully specified; D-aspartic acid at position 1; position 3 (X) is the non-natural residue F195 = 2-naphtalene
# notes: as for B8
# B18: VIB-0068894 (peptide)
# peptide: DIXWS
# modifications: D-aspartic acid at position 1; position 3 (X) is the non-natural residue F126 = 6-chloro-3-methyl-1H-indole
# notes: as for B8
# B19: VIB_P08 (peptide)
# peptide: [dD]DSDVWWGG
# B20: VIB_P11 (peptide)
# peptide: DDS[dD]VWWGG
# notes: Printed as DDS{D-ASP}VWWGG
# B21: VIB-0068911 (peptide)
# peptide: [dD]I[F72]WS
# modifications: not fully specified; reading uncertain
# notes: as for B8
# Experiments:
# [1] = target: T1, GABABR1a-SD1 (SD1-FITC-9mer complex) (Homo sapiens, UniProt Q9UBS5); test: Fluorescence polarization (FP) competition assay with FITC-9mer; assay type: binding; conditions: peptide at 50 μM; inhibition of FITC-9mer binding to SD1
# T1 construct: The synthetic gene encoding for residues 26-96 of the Sushi1 protein was cloned into a pFloat-SUMO vector; His-SUMO (with 3C protease site) (N, cleaved yes); made in house; host or cells: E. coli BL21(DE3)
# T1 sequence (Q9UBS5 26-96, one chain of several): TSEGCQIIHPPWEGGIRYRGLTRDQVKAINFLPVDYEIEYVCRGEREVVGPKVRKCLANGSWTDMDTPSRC
# Procedure: Intrigued by the surprising results of the 5-mer, it was decided to set up a medium- to high-throughput screen to optimize the 5-mer sequence. Several assays were tested to find a reproducible, robust and cost-effective assay that is also suitable for high-throughput screening. A fluorescence polarization (FP) assay was selected. FP measurements are well-known for receptor binding assays. The assay is based on the rotational movement of fluorescently labelled molecules in solution. […] The FP assay was optimized using the FITC labelled sAPP 9-mer (FIG. 1).
# (§1) To screen for GABABR1a binders using unlabelled test compounds, the assay was turned into a competition assay using FITC-9mer. […] To validate this inhibitor assay, the IC50 values were determined of the 17-mer, 9-mer, 5-mer as well as those from 3 negative controls: 10-mer, scrambled 17-mer and a scrambled 9-mer (FIG. 2).
# (§2) To determine if the peptides of this application were able to disrupt the SD1-9-mer complex, each peptide (in single point or dose-response curve) tested was incubate with SD1 protein for 1 h at RT. After this initially incubation, FITC-9mer was added to the previous mix and incubated during 2 h at RT. The signal intensity was measure in an appropriate plate reader using the following settings: Number of flashes per well: 200; Excitation: F482-16; Dichroic filter: FLP 504; Emission A F530-40; Gain A: 738, Gain B: 736. The assay was conducted in a 384-well plate.
# [2] = target: T2, HEK293 cells expressing the ectodomain of GABABR1a comprising SD1 (Homo sapiens, UniProt Q9UBS5); test: Flow-cytometry cell-based binding assay, competition with biotinylated 9-mer; conditions: peptide at 100 μM, inhibition of biotin-9mer (10 μM) binding
# T2 construct: HEK293 were transfected with plasmids encoding the ectodomain of GABABR1a (as in Rice et al., 2019); expressed in transfected cells; host or cells: HEK293
# T2 sequence (Q9UBS5 20-591 limits assumed): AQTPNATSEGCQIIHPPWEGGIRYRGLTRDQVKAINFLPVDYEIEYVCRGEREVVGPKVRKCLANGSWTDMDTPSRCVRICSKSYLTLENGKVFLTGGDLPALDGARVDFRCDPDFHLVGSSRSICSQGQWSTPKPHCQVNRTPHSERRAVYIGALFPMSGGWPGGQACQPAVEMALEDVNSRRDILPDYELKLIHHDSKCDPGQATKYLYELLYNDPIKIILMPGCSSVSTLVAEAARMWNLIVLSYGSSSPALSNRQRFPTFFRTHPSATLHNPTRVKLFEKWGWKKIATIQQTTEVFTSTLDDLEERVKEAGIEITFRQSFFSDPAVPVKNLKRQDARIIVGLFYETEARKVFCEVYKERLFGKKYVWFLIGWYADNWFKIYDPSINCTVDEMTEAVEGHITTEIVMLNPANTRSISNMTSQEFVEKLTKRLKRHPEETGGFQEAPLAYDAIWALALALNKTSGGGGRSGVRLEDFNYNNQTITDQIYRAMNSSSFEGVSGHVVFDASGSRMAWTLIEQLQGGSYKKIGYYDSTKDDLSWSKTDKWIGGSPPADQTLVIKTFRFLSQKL
# Procedure: HEK cells expressing GABABR1a-SD1 were incubated with peptides of the application and the binding of 9-mer in the presence of the peptides was measured. The 9-mer peptide is biotinylated and detected with a commercial antibody.
# (§3) Next, the top ranking compounds were tested in a cell-based binding assay. HEK293 cells were transformed to express the ectodomain of GABABR1a comprising SD1. In this cell-based assay, SD1 is expressed on the GABABR1a ectodomain and can adopt a more physiological conformation, compared to the purified SD1 protein used in the primary assay (FP assay).
# (§4) HEK293 were transfected with plasmids encoding the ectodomain of GABABR1a (as in Rice et al., 2019), carrying a His-tag at the N-terminal. After 24 h of expression, cells were harvested and adjusted to a concentration of 1×10^6 cells/mL in ice-cold 2% FBS/PBS. Incubation with each peptide (in dose-response curve) was carried out at 4° C. for 1 h, followed by incubation with the biotion-9mer (10 μM) peptide during 30 min. Detection antibodies recognizing either His protein or biotin were added for a period of 30 min. The assay plate containing the cells was loaded into the Attune NxT Cytometer, parameters were adjusted accordingly with the cell type and signal intensity. In each experiment, positive and negative control were added to the plate.
# [3] = target: T3, Sushi domain 1 of the human GABA B1a receptor (human, UniProt Q9UBS5 26-96); test: ITC, peptide titrated into purified SD1
# T3 construct: Purified recombinant protein from E. coli; also called SD1; GABABR1a-SD1
# T3 sequence (Q9UBS5 26-96 limits assumed): as the sequence (Q9UBS5 26-96, one chain of several) above
# Procedure: First, we wondered whether the wild-type sAPP 9-mer peptide would be the optimal sequence in terms of SD1 binding or whether sequence variants of the sAPP 9-mer would have improved binding to the GABABR1a-SD1. Therefore a panel of single and double sAPP 9-mer mutants was generated. An alanine scan was performed for the residues on position 1 to position 7. Based on an ITC assay, these single mutant peptides bound the SD1 with the same or slightly higher Kd (Table 1). Also the double mutants VIB_P04, VIB_P05 and VIB_P19 bound with a similar Kd to SD1 compared to the wild-type 9-mer. We have also tested the effect of the D-isomer of the amino residues on position 1 to 4, in single or multiple combinations. None of the mutations had strong effects on the measured Kd (Table 1). We therefore conclude that the wild-type sAPP 9-mer is already optimized but that many variants bind as good to SD1 and thus will modulate GABABR1a in a similar manner.
# (§5) The Sushi-1 protein was dialysed overnight to PBS buffer and diluted to 30 μM in the same buffer. The peptides were resuspended in PBS at a stock concentration of 3 mM and diluted further in the same buffer to 300 μM. ITC experiments were performed on a Microcal ITC200 device. Titrations comprised 26×1.5 μL injections of peptide into protein, with 90 s intervals. An initial injection of ligand (0.5 μL) was made and discarded during data analysis. The data were fitted to a single binding site model using the Microcal LLC ITC₂₀₀. Original software provided by the manufacturer.
# [4] = target: T3, Sushi domain 1 of the human GABA B1a …; test: ITC, peptide titrated into purified SD1; remark: listed apart in the source
# Procedure: as §5
# [5] = target: T3, Sushi domain 1 of the human GABA B1a …; test: FP competition vs FITC-9mer on purified SD1
# Procedure: as §1
# Based on structural information of DIYWS-SD1 and DIWWS-SD1 co-crystals, 48 peptides containing non-natural residues were manually designed and checked for binding to the GABABR1a SD1 in the FP assay at a concentration of 50 μM. These non-natural peptides were categorized based on the IC50 values obtained in the FP assay (Table 3). […] The listed non-natural 5-mers all share D-aspartate was on position 1 (residue position 4 of the 9-mer), L-isoleucine on position 2 (residue position 5 of the 9-mer), L-tryptophane on position 4 (residue position 7 of the 9-mer) and L-serine on position 5 (residue position 8 of the 9-mer), while position 3 is selected from the list consisting of L-tyrosine, isoethylmethyl-benzene, 6-chloro-3-methyl-1H-indole, methylcyclohexane, ethylcyclohexane, 2-naphthalene, ethylbenzene, 1,1-difluoro-4-cyclohexyl, 4-methyl-1-methoxy-2-methylbenzene, 1-chloro-4-methylbenzene, 4-methylphenyl-methanol, 3-methylbenzoic acid and 4-methylaniline.
# [6] = target: T4, Ectodomain of GABABR1a comprising SD1, expressed on HEK293 cells with N-terminal His-tag (human, UniProt Q9UBS5 20-591, limits assumed); test: flow cytometry competition vs biotin-9mer on HEK293 cells expressing GABABR1a ectodomain
# T4 construct: extracellular domain; also called GABABR1a-SD1 (on cells); GABABR1a ectodomain
# T4 sequence (Q9UBS5 20-591 limits assumed): as the sequence (Q9UBS5 20-591 limits assumed) above
# Procedure: as §3, with “assay). Before testing the active compounds, it was confirmed that 9-mer (tagged with Biotin) binds specifically to cells expressing GABABR1a-SD1 and not GABABR1b.” for “assay).”
# as §4
# [7] = target: T3, Sushi domain 1 of the human GABA B1a …; test: FP competition vs FITC-9mer on purified SD1; remark: listed apart in the source
# Procedure: Next, 35 variants of the DVWWG 5-mer peptide containing natural residues were tested in the above described FP assay. The peptides were tested at a concentration of 50 μM.
# as §2
molecule,measurement,setting,value
CC[C@H](C)[C@H](NC(=O)[C@H](N)CC(=O)O)C(=O)N[C@@H](Cc1ccc2ccccc2c1)C(=O)N[C@@H](Cc1c[nH]c2ccccc12)C(=O)N[C@@H](CO)C(=O)O [VIB-0068895] (H-[dD]I[2Nal]WS-OH; N-terminus and C-terminus assumed),inhibition at 50 µM,[1],96.3%
same,inhibition at 100 µM,[2],77%
CC[C@H](C)[C@H](NC(=O)[C@H](N)CC(=O)O)C(=O)N[C@@H](CCC1CCCCC1)C(=O)N[C@@H](Cc1c[nH]c2ccccc12)C(=O)N[C@@H](CO)C(=O)O [VIB-0068903] (H-[dD]I[hCha]WS-OH; N-terminus and C-terminus assumed),inhibition at 50 µM,[1],93.9%
same,inhibition at 100 µM,[2],76%
CC[C@H](C)[C@H](NC(=O)[C@H](N)CC(=O)O)C(=O)N[C@@H](CC1CCCCC1)C(=O)N[C@@H](Cc1c[nH]c2ccccc12)C(=O)N[C@@H](CO)C(=O)O [VIB-0068905] (H-[dD]I[Cha]WS-OH; N-terminus and C-terminus assumed),inhibition at 50 µM,[1],94.8%
same,inhibition at 100 µM,[2],68.3%
CC[C@H](C)[C@H](NC(=O)[C@H](N)CC(=O)O)C(=O)N[C@@H](CC1CCC(F)(F)CC1)C(=O)N[C@@H](Cc1c[nH]c2ccccc12)C(=O)N[C@@H](CO)C(=O)O [VIB-0068907] (H-[dD]I[X2]WS-OH; N-terminus and C-terminus assumed),inhibition at 50 µM,[1],86.2%
same,inhibition at 100 µM,[2],47.2%
B1,Kd,[3],25.8 µM
B2,Kd,[3],12.2 µM
B3,Kd,[3],7.58 µM
B4,Kd,[3],5.85 µM
B5,Kd,[3],10 µM
B6,Kd,[3],18.1 µM
B7,Kd,[3],3.68 µM
B8,Kd,[4],250 nM
same,% inhibition 50 µM,[5],94.8%
same,IC50,[5],8.11 µM
same,% inhibition 100 µM,[6],68.3%
same,IC50,[6],78.8 µM
B9,Kd,[3],8.47 µM
B10,Kd,[4],2470 nM
same,% inhibition 50 µM,[5],86.2%
same,IC50,[5],12.6 µM
same,% inhibition 100 µM,[6],47.2%
same,IC50,[6],49.2 µM
B11,Kd,[4],930 nM
same,% inhibition 50 µM,[5],93.9%
same,IC50,[5],8.22 µM
same,% inhibition 100 µM,[6],76%
same,IC50,[6],154 µM
B12,Kd,[4],2900 nM
same,% inhibition 50 µM,[5],88.6%
same,IC50,[5],11.9 µM
same,% inhibition 100 µM,[6],54.2%
B13,Kd,[3],9.09 µM
same,Kd,[4],9090 nM
same,% inhibition 50 µM,[7],66%
B14,Kd,[4],1020 nM
same,% inhibition 50 µM,[7],81.9%
B15,Kd,[4],18400 nM
same,% inhibition 50 µM,[7],25.5%
B16,Kd,[4],1020 nM
same,% inhibition 50 µM,[5],26.7%
B17,Kd,[4],1390 nM
same,% inhibition 50 µM,[5],96.3%
same,IC50,[5],11.1 µM
same,% inhibition 100 µM,[6],77%
same,IC50,[6],43.3 µM
B18,Kd,[4],340 nM
same,% inhibition 50 µM,[5],96.8%
same,IC50,[5],7.12 µM
same,% inhibition 100 µM,[6],84.2%
same,IC50,[6],28.7 µM
B19,Kd,[3],6.45 µM
B20,Kd,[3],6.21 µM
B21,Kd,[4],540 nM
same,% inhibition 50 µM,[5],98.1%
same,IC50,[5],6.54 µM
same,% inhibition 100 µM,[6],90%
same,IC50,[6],38 µM

# From patent US20240376149A1, “Novel Modulators of GABABR1a” (VIB VZW, priority 2021, published 2024)
